We go through 3 molecules from PMC5566480.

B1: Recombinant LipL32 wild type, mature form (rLipL32; 21-272) V35S (protein)
chain: GAFGGLPSLKSSFSLSESTVPGTNETVKTFLPYGSVINYYGYVKPGQAPDGLVDGNKKAYYLYVWIPAVIAEMGVRMISPTGEIGEPGDGDLVSDAFKAATPEEKSMPHWFDTWIRVERMSAIMPDQIAKAAKAKPVQKLDDDDDGDDTYKEERHNKYNSLTRIKIPNPPKSFDDLKNIDTKKLLVRGLYRISFTTYKPGEVKGSFVASVGLLFPPGIPGVSPLIHSNPEELQKQAIAAEESLKKAASDATK
B2: Recombinant LipL32 wild type, mature form (rLipL32; 21-272) L36S (protein)
chain: GAFGGLPSLKSSFVSSESTVPGTNETVKTFLPYGSVINYYGYVKPGQAPDGLVDGNKKAYYLYVWIPAVIAEMGVRMISPTGEIGEPGDGDLVSDAFKAATPEEKSMPHWFDTWIRVERMSAIMPDQIAKAAKAKPVQKLDDDDDGDDTYKEERHNKYNSLTRIKIPNPPKSFDDLKNIDTKKLLVRGLYRISFTTYKPGEVKGSFVASVGLLFPPGIPGVSPLIHSNPEELQKQAIAAEESLKKAASDATK
B3: Recombinant LipL32 wild type, mature form (rLipL32; 21-272) F34S (protein)
chain: GAFGGLPSLKSSSVLSESTVPGTNETVKTFLPYGSVINYYGYVKPGQAPDGLVDGNKKAYYLYVWIPAVIAEMGVRMISPTGEIGEPGDGDLVSDAFKAATPEEKSMPHWFDTWIRVERMSAIMPDQIAKAAKAKPVQKLDDDDDGDDTYKEERHNKYNSLTRIKIPNPPKSFDDLKNIDTKKLLVRGLYRISFTTYKPGEVKGSFVASVGLLFPPGIPGVSPLIHSNPEELQKQAIAAEESLKKAASDATK

The target of this assay is Recombinant human Toll-like receptor 2 (rTLR2), O60603. The assay can be described thus: ELISA. To be noted: chain shown with the change;; parent: est. 0.37; read off a plot. For orientation: An ELISA detects its analyte on a solid surface through an enzyme-linked reagent.
Chain of Recombinant human Toll-like receptor 2 (rTLR2), O60603 (O60603 21-784): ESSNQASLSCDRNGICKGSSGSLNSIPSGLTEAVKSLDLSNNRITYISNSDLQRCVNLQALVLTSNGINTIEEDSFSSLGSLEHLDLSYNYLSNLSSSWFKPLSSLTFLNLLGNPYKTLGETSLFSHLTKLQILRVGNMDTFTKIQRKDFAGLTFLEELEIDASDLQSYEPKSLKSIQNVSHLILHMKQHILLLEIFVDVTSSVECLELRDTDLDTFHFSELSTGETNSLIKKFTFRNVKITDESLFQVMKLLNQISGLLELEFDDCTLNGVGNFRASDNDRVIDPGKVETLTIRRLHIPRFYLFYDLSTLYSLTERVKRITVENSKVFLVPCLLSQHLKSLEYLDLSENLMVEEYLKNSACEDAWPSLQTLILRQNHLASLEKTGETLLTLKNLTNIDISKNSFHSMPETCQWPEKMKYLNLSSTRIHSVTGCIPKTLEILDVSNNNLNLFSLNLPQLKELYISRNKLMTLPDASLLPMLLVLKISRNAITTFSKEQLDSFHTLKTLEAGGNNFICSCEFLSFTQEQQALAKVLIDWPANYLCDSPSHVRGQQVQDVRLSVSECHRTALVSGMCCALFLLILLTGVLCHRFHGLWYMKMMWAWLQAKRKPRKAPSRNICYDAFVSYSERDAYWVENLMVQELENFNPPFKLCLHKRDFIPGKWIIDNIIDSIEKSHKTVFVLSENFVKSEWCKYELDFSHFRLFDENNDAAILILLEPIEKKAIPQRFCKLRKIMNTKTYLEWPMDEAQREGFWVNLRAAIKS
As for B1, the response is 0.25 OD450nm. For B2, the response is 0.23 OD450nm. Turning to B3, the response worked out at 0.31 OD450nm.
